Measurements from patent publication US20240352434, “COMPOSITIONS COMPRISING A VARIANT CAS12I3 POLYPEPTIDE AND USES THEREOF” (Arbor Biotechnologies, Inc., published 2024).
Where a chain is given by its changes, count along the chain named.

T1: Cas12i3 R565G (Unidentified, R565G)
T1 chain: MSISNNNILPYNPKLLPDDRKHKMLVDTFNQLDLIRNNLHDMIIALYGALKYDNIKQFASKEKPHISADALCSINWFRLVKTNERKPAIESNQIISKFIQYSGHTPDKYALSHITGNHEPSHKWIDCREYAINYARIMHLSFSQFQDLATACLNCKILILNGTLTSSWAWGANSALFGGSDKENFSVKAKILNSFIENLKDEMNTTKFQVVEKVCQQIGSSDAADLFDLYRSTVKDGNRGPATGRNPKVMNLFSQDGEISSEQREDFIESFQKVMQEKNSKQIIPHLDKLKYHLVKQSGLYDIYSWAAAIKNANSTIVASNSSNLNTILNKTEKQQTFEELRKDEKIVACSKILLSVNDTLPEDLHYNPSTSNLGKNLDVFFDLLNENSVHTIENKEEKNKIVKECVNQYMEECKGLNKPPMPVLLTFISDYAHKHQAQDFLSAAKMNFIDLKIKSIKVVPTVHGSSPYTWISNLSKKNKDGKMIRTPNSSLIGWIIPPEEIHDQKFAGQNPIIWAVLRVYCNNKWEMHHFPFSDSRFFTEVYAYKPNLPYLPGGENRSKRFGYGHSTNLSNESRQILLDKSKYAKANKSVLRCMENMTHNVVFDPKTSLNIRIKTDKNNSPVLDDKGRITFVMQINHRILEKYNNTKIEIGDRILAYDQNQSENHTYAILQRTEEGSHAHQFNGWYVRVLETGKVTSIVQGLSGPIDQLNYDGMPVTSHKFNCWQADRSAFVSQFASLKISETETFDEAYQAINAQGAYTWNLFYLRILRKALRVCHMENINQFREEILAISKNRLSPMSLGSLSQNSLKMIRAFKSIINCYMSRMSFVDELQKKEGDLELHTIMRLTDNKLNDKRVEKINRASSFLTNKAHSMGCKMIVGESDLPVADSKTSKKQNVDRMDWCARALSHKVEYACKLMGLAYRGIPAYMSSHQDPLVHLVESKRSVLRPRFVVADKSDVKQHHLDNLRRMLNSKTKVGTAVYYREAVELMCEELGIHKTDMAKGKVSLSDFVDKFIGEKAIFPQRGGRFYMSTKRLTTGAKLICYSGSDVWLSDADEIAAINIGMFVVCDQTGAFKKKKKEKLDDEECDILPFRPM

T2: Cas12i3 S536R (Unidentified, S536R)
T2 chain: T1 chain with S536R, G565R

B1: EMX1_T5 crRNA ; EMX1_T5 target (ssRNA ; dsDNA)
RNA: AUAGUGUGUCCUUAGUUGACAUUAUUAUUCCCAUAGGGAAGG
DNA 1: TATTATTCCCATAGGGAAGG
DNA 2: CCTTCCCTATGGGAATAATA
B2: VEGFA_T2 crRNA ; VEGFA_T2 target (ssRNA ; dsDNA)
RNA: AUAGUGUGUCCUUAGUUGACAUAAUCCUCCACCAGUCAUGGU
DNA 1: AATCCTCCACCAGTCATGGT
DNA 2: ACCATGACTGGTGGAGGATT
B3: AAVS1_T3 crRNA ; AAVS1_T3 target (ssRNA ; dsDNA)
RNA: AUAGUGUGUCCUUAGUUGACAUGUGAGAAUGGUGCGUCCUAG
DNA 1: GTGAGAATGGTGCGTCCTAG
DNA 2: CTAGGACGCACCATTCTCAC

Biological target: T1, Cas12i3 R565G
Assay: cell_activity; fold change in % indels, HEK293T; PAM not stated in example
Experimental: (§1) Approximately 16 hours prior to transfection, 100 μl of 25,000 HEK293T cells in DMEM/10% FBS+Pen/Strep were plated into each well of a 96-well plate. On the day of transfection, the cells were 70-90% confluent. For each well to be transfected, a mixture of 0.5 μl of Lipofectamine 2000 and 9.5 μl of Opti-MEM was prepared and then incubated at room temperature for 5-20 minutes (Solution 1). […] In the case of negative controls, the crRNA was not included in Solution 2. The solution 1 and solution 2 mixtures were mixed by pipetting up and down and then incubated at room temperature for 25 minutes. Following incubation, 20 μL of the Solution 1 and Solution 2 mixture were added dropwise to each well of a 96 well plate containing the cells. 72 hours post transfection, cells are trypsinized by adding 10 μL of TrypLE to the center of each well and incubated for approximately 5 minutes. 100 μL of D10 media was then added to each well and mixed to resuspend cells. The cells were then spun down at 500 g for 10 minutes, and the supernatant was discarded. QuickExtract buffer was added to ⅕ the amount of the original cell suspension volume. Cells were incubated at 65° C. for 15 minutes, 68° C. for 15 minutes, and 98° C. for 10 minutes.
(§2) Samples for Next Generation Sequencing were prepared by two rounds of PCR. The first round (PCR1) was used to amplify specific genomic regions depending on the target. PCR1 products were purified by column purification. Round 2 PCR (PCR2) was done to add Illumina adapters and indexes. Reactions were then pooled and purified by column purification. Sequencing runs were done with a 150 cycle NextSeq v2.5 mid or high output kit.
With B1 the binding signal was 1.21 fold of wild-type. B2 was tested, and the binding signal was 0.73 fold of wild-type. With B3 the binding signal was 1.86 fold of wild-type.

Biological target: T2, Cas12i3 S536R
Assay: as above
Experimental: as §1, §2
With B1 the binding signal was 1.27 fold of wild-type. In the case of B2, the binding signal is reported as 1.8 fold of wild-type. With B3 the binding signal was 2.16 fold of wild-type.
